# Test results taken from patent US20250076311A1 (Chugai, published 2025).
# T1: cynomolgus monkey FcγRIIIaS extracellular domain with C-terminal His-tag (cynomolgus monkey, UniProt Q8SPW2 21-206 at identity 1.00))
# T1 construct: also called cyno FcgRIIIaS; cynoFcγRIIIaS
# T1 chain: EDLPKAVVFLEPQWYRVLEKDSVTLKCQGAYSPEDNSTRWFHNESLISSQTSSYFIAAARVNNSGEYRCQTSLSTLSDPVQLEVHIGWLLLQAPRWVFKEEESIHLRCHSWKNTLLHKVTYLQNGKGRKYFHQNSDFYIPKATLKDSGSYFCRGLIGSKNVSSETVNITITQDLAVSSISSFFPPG
# T2: human FcγRIIaH extracellular domain with C-terminal His-tag (human, UniProt P12318 34-217)
# T2 construct: also called human FcgRIIaH; FcγRIIa (type H)
# T2 sequence: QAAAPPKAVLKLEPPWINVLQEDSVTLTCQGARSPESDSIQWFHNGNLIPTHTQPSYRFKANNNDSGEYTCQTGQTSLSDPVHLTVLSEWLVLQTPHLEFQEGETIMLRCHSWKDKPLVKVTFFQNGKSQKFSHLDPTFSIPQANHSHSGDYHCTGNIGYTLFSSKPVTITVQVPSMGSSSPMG
# T3: human FcγRIIaR extracellular domain with C-terminal His-tag (human, UniProt P12318 34-217)
# T3 construct: also called human FcgRIIaR; FcγRIIa (type R)
# T3 chain: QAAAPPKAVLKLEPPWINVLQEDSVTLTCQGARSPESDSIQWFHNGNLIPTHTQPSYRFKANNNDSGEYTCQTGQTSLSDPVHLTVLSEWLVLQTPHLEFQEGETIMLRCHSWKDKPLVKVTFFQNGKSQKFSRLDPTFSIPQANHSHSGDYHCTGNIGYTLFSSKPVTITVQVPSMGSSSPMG
# T4: human FcγRIIb extracellular domain with C-terminal His-tag (human, UniProt P31994 43-217)
# T4 construct: also called human FcgRIIb
# T4 sequence: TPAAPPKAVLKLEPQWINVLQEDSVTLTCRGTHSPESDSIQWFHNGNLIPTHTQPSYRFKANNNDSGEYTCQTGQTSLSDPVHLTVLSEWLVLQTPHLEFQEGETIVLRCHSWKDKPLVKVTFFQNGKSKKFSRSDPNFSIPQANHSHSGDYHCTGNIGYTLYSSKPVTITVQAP
# B1: MS1032LO06-MY101 (antibody, human IgG1, kappa)
# heavy: QVTLKESGPVLVKPTETLTLTCTVSGIDLSHDDISWVRQAPGKGLEWVGIISYAGSTYYASWAKGRLTISKDTSKNQVVLTMTNMDPVDTATYYCARGVPAYSHGGDLWGQGTLVTVSSASTKGPSVFPLAPSSKSTSGGTAALGCLVKDYFPEPVTVSWNSGALTSGVHTFPAVLQSSGLYSLSSVVTVPSSSLGTQTYICNVNHKPSNTKVDKKVEPKSCDKTHTCPPCPAPELLNGPSVFLFPPKPKDTLMISRTPEVTCVVVDVSEEDPEVKFNWYVDGVEVHNAKTKPREEQYNSTYRVVSVLTVLHQDWLNGKEYKCKVSNKALPKPIEKTISKAKGQPREPQVYTLPPSREEMTKNQVSLTCLVKGFYPSDIAVEWESNGQPENNYKTTPMVLDSDGSFFLYSKLTVDKSRWQQGNVFSCSVMHEALHNHYTQKSLSLSP
# light: DIVMTQSPATLSLSPGERATLSCTSSQSVYHANWLSWFQQKPGQPPKLLIYWASTLAYGVPSRFSGSGSGTDFTLTISSLQPEDAATYYCAGGYGGGRYAFGQGTKVEIKRTVAAPSVFIFPPSDEQLKSGTASVVCLLNNFYPREAKVQWKVDNALQSGNSQESVTEQDSKDSTYSLSSTLTLSKADYEKHKVYACEVTHQGLSSPVTKSFNRGEC
# notes: also called M103205H795-MY101; copies: 2 + 2
# B2: MS1032LO19-SG1074 (antibody, name in EU numbering)
# heavy: QVQLVESGGGLVQPGGSLRLSCAVSGIDLSHDDISWVRQAPGKGLEWVSIISYAGSTYYASWAKGRLTISKDTSKNQVVLTMTNMDPVDTATYYCARGVPAYSHGGDLWGQGTLVTVSSASTKGPSVFPLAPSSKSTSGGTAALGCLVKDYFPEPVTVSWNSGALTSGVHTFPAVLQSSGLYSLSSVVTVPSSSLGTQTYICNVNHKPSNTKVDKKVEPKSCDKTHTCPPCPAPELLNGPSVFLFPPKPKDTLMISRTPEVTCVVVDVSDEDPEVKFNWYVDGVEVHNAKTKPREELYNSTYRVVSVLTVLHRDWLNGKEYKCKVSNTALPKPIEKTISKAKGQRREPQVYTLPPSREEMTKNQVSLTCLVKGFYPSDIAVEWESNGQPENNYKTTPPVLDSDGSFFLYSKLTVDKSRWQQGNVFSCSVLHEALHAHTTRKELSLSP
# light: DIVMTQSPATLSLSPGERATLSCTTSQSVYHENWLSWFQQKPGQPPKLLIYWASTLAYGVPSRFSGSGSGTDFTLTISSLQPEDAATYYCAGGYGGGRYAFGQGTKVEIKRTVAAPSVFIFPPSDEQLKSGTASVVCLLNNFYPREAKVQWKVDNALQSGNSQESVTEQDSKDSTYSLSSTLTLSKADYEKHKVYACEVTHQGLSSPVTKSFNRGEC
# notes: tied to rows r15/r33 by row order only; also called MS103240H795-SG1074
# B3: MS1032LO19-SG1079 (antibody)
# heavy: QVQLVESGGGLVQPGGSLRLSCAVSGIDLSHDDISWVRQAPGKGLEWVSIISYAGSTYYASWAKGRLTISKDTSKNQVVLTMTNMDPVDTATYYCARGVPAYSHGGDLWGQGTLVTVSSASTKGPSVFPLAPSSKSTSGGTAALGCLVKDYFPEPVTVSWNSGALTSGVHTFPAVLQSSGLYSLSSVVTVPSSSLGTQTYICNVNHKPSNTKVDKKVEPKSCDKTHTCPPCPAPELLNGPSVFLFPPKPKDTLMISRTPEVTCVVVDVSDEDPEVKFNWYVDGVEVHNAKTKPREELYNSTYRVVSVLTVLHRDWLNGKEYKCKVSNKALPKPIEKTISKAKGQPREPQVYTLPPSREEMTKNQVSLTCLVKGFYPSDIAVEWESNGQPENNYKTTPPVLDSDGSFFLYSKLTVKKSRWQQGNVFSCSVMHEALHAHYTRKELSLSP
# light: DIVMTQSPATLSLSPGERATLSCTTSQSVYHENWLSWFQQKPGQPPKLLIYWASTLAYGVPSRFSGSGSGTDFTLTISSLQPEDAATYYCAGGYGGGRYAFGQGTKVEIKRTVAAPSVFIFPPSDEQLKSGTASVVCLLNNFYPREAKVQWKVDNALQSGNSQESVTEQDSKDSTYSLSSTLTLSKADYEKHKVYACEVTHQGLSSPVTKSFNRGEC
# notes: tied to rows r17/r35 by row order only; also called MS103240H795-SG1079; copies: 2 + 2
# B4: MS1032LO06-SG1016 (antibody, human IgG1, kappa)
# heavy: QVTLKESGPVLVKPTETLTLTCTVSGIDLSHDDISWVRQAPGKGLEWVGIISYAGSTYYASWAKGRLTISKDTSKNQVVLTMTNMDPVDTATYYCARGVPAYSHGGDLWGQGTLVTVSSASTKGPSVFPLAPSSKSTSGGTAALGCLVKDYFPEPVTVSWNSGALTSGVHTFPAVLQSSGLYSLSSVVTVPSSSLGTQTYICNVNHKPSNTKVDKKVEPKSCDKTHTCPPCPAPELLNGPSVFLFPPKPKDTLMISRTPEVTCVVVDVSEEDPEVKFNWYVDGVEVHNAKTKPREEQYNSTYRVVSVLTVLHRDWLNGKEYKCKVSNKALPKPIEKTISKAKGQPREPQVYTLPPSREEMTKNQVSLTCLVKGFYPSDIAVEWESNGQPENNYKTTPMVLKSDGSFFLYSKLTVDKSRWQQGNVFSCSVMHEALHAHYTQKSLSLSP
# light: DIVMTQSPATLSLSPGERATLSCTSSQSVYHANWLSWFQQKPGQPPKLLIYWASTLAYGVPSRFSGSGSGTDFTLTISSLQPEDAATYYCAGGYGGGRYAFGQGTKVEIKRTVAAPSVFIFPPSDEQLKSGTASVVCLLNNFYPREAKVQWKVDNALQSGNSQESVTEQDSKDSTYSLSSTLTLSKADYEKHKVYACEVTHQGLSSPVTKSFNRGEC
# notes: tied to rows r8/r26 by row order only; also called MS103205H795-SG1016; copies: 2 + 2
# B5: MS1032LO06-SG1029 (antibody, human IgG1, kappa)
# heavy: QVTLKESGPVLVKPTETLTLTCTVSGIDLSHDDISWVRQAPGKGLEWVGIISYAGSTYYASWAKGRLTISKDTSKNQVVLTMTNMDPVDTATYYCARGVPAYSHGGDLWGQGTLVTVSSASTKGPSVFPLAPSSKSTSGGTAALGCLVKDYFPEPVTVSWNSGALTSGVHTFPAVLQSSGLYSLSSVVTVPSSSLGTQTYICNVNHKPSNTKVDKKVEPKSCDKTHTCPPCPAPELLNGPSVFLFPPKPKDTLMISRTPEVTCVVVDVSDEDPEVKFNWYVDGVEVHNAKTKPREELYNSTYRVVSVLTVLHRDWLNGKEYKCKVSNKALPKPIEKTISKAKGQPREPQVYTLPPSREEMTKNQVSLTCLVKGFYPSDIAVEWESNGQPENNYKTTPPVLDSDGSFFLYSKLTVKKSRWQQGNVFSCSVMHEALHAHYTQKSLSLSP
# light: DIVMTQSPATLSLSPGERATLSCTSSQSVYHANWLSWFQQKPGQPPKLLIYWASTLAYGVPSRFSGSGSGTDFTLTISSLQPEDAATYYCAGGYGGGRYAFGQGTKVEIKRTVAAPSVFIFPPSDEQLKSGTASVVCLLNNFYPREAKVQWKVDNALQSGNSQESVTEQDSKDSTYSLSSTLTLSKADYEKHKVYACEVTHQGLSSPVTKSFNRGEC
# notes: tied to rows r9/r27 by row order only; also called MS103205H795-SG1029; copies: 2 + 2
# B6: MS1032LO06-SG1031 (antibody, human IgG1, kappa, name in EU numbering)
# heavy: QVTLKESGPVLVKPTETLTLTCTVSGIDLSHDDISWVRQAPGKGLEWVGIISYAGSTYYASWAKGRLTISKDTSKNQVVLTMTNMDPVDTATYYCARGVPAYSHGGDLWGQGTLVTVSSASTKGPSVFPLAPSSKSTSGGTAALGCLVKDYFPEPVTVSWNSGALTSGVHTFPAVLQSSGLYSLSSVVTVPSSSLGTQTYICNVNHKPSNTKVDKKVEPKSCDKTHTCPPCPAPELLNGPSVFLFPPKPKDTLMISRTPEVTCVVVDVSDEDPEVKFNWYVDGVEVHNAKTKPREEQYNSTYRVVSVLTVLHRDWLNGKEYKCKVSNKALPKPIEKTISKAKGQPREPQVYTLPPSREEMTKNQVSLTCLVKGFYPSDIAVEWESNGQPENNYKTTPPVLDSDGSFFLYSKLTVKKSRWQQGNVFSCSVMHEALHAHYTQKSLSLSP
# light: DIVMTQSPATLSLSPGERATLSCTSSQSVYHANWLSWFQQKPGQPPKLLIYWASTLAYGVPSRFSGSGSGTDFTLTISSLQPEDAATYYCAGGYGGGRYAFGQGTKVEIKRTVAAPSVFIFPPSDEQLKSGTASVVCLLNNFYPREAKVQWKVDNALQSGNSQESVTEQDSKDSTYSLSSTLTLSKADYEKHKVYACEVTHQGLSSPVTKSFNRGEC
# notes: tied to rows r10/r28 by row order only; also called MS103205H795-SG1031; copies: 2 + 2
# Tests used:
# [1] = target: T1, cynomolgus monkey FcγRIIIaS …; assay: SPR, antibody captured, FcγR analyte
# Experimental: The kinetic analysis of interactions between these antibodies and FcγR was carried out using BIACORE® T200 or BIACORE® 4000 (GE Healthcare). HBS-EP+ (GE Healthcare) was used as the running buffer, and the measurement temperature was set to 25° C. […] After the measurement, the antibody captured on the chip was washed off by allowing reaction with 10 mM glycine-HCl, pH1.5 and 25 mM NaOH so that the chip was regenerated and used repeatedly. The sensorgrams obtained as measurement results were analyzed by the 1:1 Langmuir binding model using the BIACORE® Evaluation Software to calculate the binding rate constant ka (L/mol/s) and dissociation rate constant kd (1/s), and the dissociation constant KD (mol/L) was calculated from these values. […] Regarding such interactions, KD values were calculated using the following 1:1 binding model described in BIACORE® T100 Software Handbook BR1006-48 Edition AE.
# [2] = target: T1, cynomolgus monkey FcγRIIIaS …; assay: SPR, KD(parent SG1)/KD(variant)
# [3] = target: T2, human FcγRIIaH extracellular domain …; assay: SPR, KD(parent SG1)/KD(variant)
# [4] = target: T3, human FcγRIIaR extracellular domain …; assay: SPR, KD(parent SG1)/KD(variant)
# [5] = target: T4, human FcγRIIb extracellular domain with …; assay: SPR, KD(parent SG1)/KD(variant)
Binder,Kd [1],KD fold (SG1 = 1) [2],KD fold (SG1 = 1) [3],KD fold (SG1 = 1) [4],KD fold (SG1 = 1) [5]
B1,3.2 µM,–,–,–,–
B2,–,0.19 fold,1.2 fold,1.1 fold,10.7 fold
B3,–,0.04 fold,–,0.1 fold,–
B4,–,0.17 fold,1.8 fold,1.2 fold,0.7 fold
B5,–,0.05 fold,1.5 fold,0.6 fold,5.9 fold
B6,–,0.05 fold,–,1.7 fold,3.2 fold
